In ChEMBL document CHEMBL2073844, “Pharmacological characterization of the murine and human orthologs of multidrug-resistance protein in transfected human embryonic kidney cells” (Mol Pharmacol, 1997):

What was measured:
[1] = substrate: CCCCC/C=C\C\C=C/C=C/C=C/[C@@H](SC[C@@H](NC(=O)CC[C@H](N)C(=O)O)C(=O)NCC(=O)O)[C@@H](O)CCCC(=O)O; experiment: cells, lysate or membranes named
[2] = substrate: C[C@]12CC[C@@H]3c4ccc(O)cc4CC[C@H]3[C@@H]1CC[C@@H]2O[C@@H]1O[C@H](C(=O)O)[C@@H](O)[C@H](O)[C@H]1O; experiment: cells, lysate or membranes named

B1: Multidrug resistance-associated protein 1 (Mus musculus) (protein)
chain: MALRSFCSADGSDPLWDWNVTWHTSNPDFTKCFQNTVLTWVPCFYLWSCFPLYFFYLSRHDRGYIQMTHLNKTKTALGFFLWIICWADLFYSFWERSQGVLRAPVLLVSPTLLGITMLLATFLIQLERRKGVQSSGIMLTFWLVALLCALAILRSKIISALKKDAHVDVFRDSTFYLYFTLVLVQLVLSCFSDCSPLFSETVHDRNPCPESSASFLSRITFWWITGMMVHGYRQPLESSDLWSLNKEDTSEEVVPVLVNNWKKECDKSRKQPVRIVYAPPKDPSKPKGSSQLDVNEEVEALIVKSPHKDREPSLFKVLYKTFGPYFLMSFLYKALHDLMMFAGPKILELIINFVNDREAPDWQGYFYTALLFVSACLQTLALHQYFHICFVSGMRIKTAVVGAVYRKALLITNAARKSSTVGEIVNLMSVDAQRFMDLATYINMIWSAPLQVILALYFLWLSLGPSVLAGVAVMILMVPLNAVMAMKTKTYQVAHMKSKDNRIKLMNEILNGIKVLKLYAWELAFQDKVMSIRQEELKVLKKSAYLAAVGTFTWVCTPFLVALSTFAVFVTVDERNILDAKKAFVSLALFNILRFPLNILPMVISSIVQASVSLKRLRIFLSHEELEPDSIERRSIKSGEGNSITVKNATFTWARGEPPTLNGITFSIPEGALVAVVGQVGCGKSSLLSALLAEMDKVEGHVTLKGSVAYVPQQAWIQNDSLRENILFGHPLQENYYKAVMEACALLPDLEILPSGDRTEIGEKGVNLSGGQKQRVSLARAVYSNSDIYLFDDPLSAVDAHVGKHIFEKVVGPMGLLKNKTRILVTHGISYLPQVDVIIVMSGGKISEMGSYQELLDRDGAFAEFLRTYANAEQDLASEDDSVSGSGKESKPVENGMLVTDTVGKHLQRHLSNSSSHSGDTSQQHSSIAELQKAGAKEETWKLMEADKAQTGQVQLSVYWNYMKAIGLFITFLSIFLFLCNHVSALASNYWLSLWTDDPPVVNGTQANRNFRLSVYGALGILQGAAIFGYSMAVSIGGIFASRRLHLDLLYNVLRSPMSFFERTPSGNLVNRFSKELDTVDSMIPQVIKMFMGSLFSVIGAVIIILLATPIAAVIIPPLGLVYFFVQRFYVASSRQLKRLESVSRSPVYSHFNETLLGVSVIRAFEEQERFIHQSDLKVDENQKAYYPSIVANRWLAVRLECVGNCIVLFAALFAVISRHSLSAGLVGLSVSYSLQITAYLNWLVRMSSEMETNIVAVERLKEYSETEKEAPWQIQETAPPSTWPHSGRVEFRDYCLRYREDLDLVLKHINVTIEGGEKVGIVGRTGAGKSSLTLGLFRINESAEGEIIIDGVNIAKIGLHNLRFKITIIPQDPVLFSGSLRMNLDPFSQYSDEEVWMALELAHLKGFVSALPDKLNHECAEGGENLSVGQRQLVCLARALLRKTKILVLDEATAAVDLETDNLIQSTIRTQFEDCTVLTIAHRLNTIMDYTRVIVLDKGEVRECGAPSELLQQRGIFYSMAKDAGLV
In the case of B1, the Km [1] is reported as 0.06 µM and the Km [2] is reported as 2.9 µM.
